Test results from patent CN113956356A (FUZHOU MAIXIN BIOTECHNOLOGY DEV CO LTD, dated 2022).

Target: T1, 人PRL蛋白 (native prolactin in pituitary tumour tissue sections) (human, UniProt P01236 29-227)
T1 construct: Endogenous protein detected by immunohistochemistry in paraffin sections of pituitary tumours; also called 催乳素
T1 sequence (looked up): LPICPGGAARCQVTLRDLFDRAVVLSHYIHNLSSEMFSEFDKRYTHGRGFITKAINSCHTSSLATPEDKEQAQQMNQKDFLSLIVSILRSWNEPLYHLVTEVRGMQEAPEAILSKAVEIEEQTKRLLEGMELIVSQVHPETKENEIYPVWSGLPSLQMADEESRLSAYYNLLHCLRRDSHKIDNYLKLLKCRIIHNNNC
Experiment: immunohistochemistry on 9 pituitary tumour sections

binding result: binds
B1: 抗PRL蛋白单克隆抗体(2C10D5H11) (antibody, V domains shown)
VH: QIQLVQSGPELKKPGETVKISCKASGYSFTNSAMSWVHQAPGKGLKWMGFINTKTGEPTYVEEFRGRFVFSLETSASTAYLQINNLKNEDTATYFCAKETDNSDDYWGQGTTLTVSS
VL: QIVLTQSPAIMSASPGEMVTLTCSASSSVSSSYLYWYQQKPGSSPKLWIYSTSNLASGVPARFSGSGSGTSYSLTISSMEAEDAASYFCHQWSSYPPTFGGGTKLEIK
notes: also called anti-PRL monoclonal antibody; antibody of hybridoma CGMCC NO.22311
